Experimental findings from patent US20220403022A1 (Merck KGaA, published 2022) are described below.

In experiment [1] the target is T1, cynomolgus monkey TIGIT on primary T cells (cynomolgus monkey, UniProt A0A7N9I9V4 89-312).
T1 construct: whole, on cells; also called cyno PBMCs; cynomolgus monkey spleen cells
Put plainly: flow cytometry on CD3+ T cells of cyno PBMCs. A general note: Flow cytometry measures light scatter and fluorescence of single cells or particles in a stream.

Experiment [2] addresses T2, human TIGIT on cells (primary T cells, transfected HEK293 cells, Jurkat reporter cells, NK cells) (human, UniProt Q495A1 22-244).
T2 construct: also called TIGIT-transfected HEK293 cells
T2 sequence: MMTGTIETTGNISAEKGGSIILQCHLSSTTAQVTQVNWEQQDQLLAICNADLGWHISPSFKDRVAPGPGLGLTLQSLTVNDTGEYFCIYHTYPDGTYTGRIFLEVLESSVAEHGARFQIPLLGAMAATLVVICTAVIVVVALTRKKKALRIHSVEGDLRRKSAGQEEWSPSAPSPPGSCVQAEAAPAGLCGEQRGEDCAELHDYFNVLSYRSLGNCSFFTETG
The experiment can be described thus: flow cytometry on CD3+ T cells of human PBMCs.

Another experiment deals with T3, human TIGIT ECD P114G (human, UniProt Q495A1 22-141).
T3 construct: point mutant expressed in E. coli
T3 chain: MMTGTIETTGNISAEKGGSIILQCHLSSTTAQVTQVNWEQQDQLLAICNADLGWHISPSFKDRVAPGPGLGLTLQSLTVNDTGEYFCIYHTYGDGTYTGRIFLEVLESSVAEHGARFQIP
The experiment can be described thus: SPR, antibody captured, mutant TIGIT ECD injected.

A further experiment has as its target T4, human TIGIT ECD Y113A (human, UniProt Q495A1 22-141).
T4 construct: point mutant expressed in E. coli
T4 chain: T3 chain with Y92A, G93P
Put plainly: SPR, antibody captured, mutant TIGIT ECD injected. For orientation: In SPR one partner is held on a chip, and binding of the other changes the refractive index at the surface.

The target in another experiment is T5, human TIGIT ECD Q53A (human, UniProt Q495A1 22-141).
T5 construct: point mutant expressed in E. coli
T5 chain: T3 chain with Q32A, G93P
The experiment can be described thus: SPR, antibody captured, mutant TIGIT ECD injected.

The target of a further experiment is T6, human TIGIT ECD T55A (human, UniProt Q495A1 22-141).
T6 construct: point mutant expressed in E. coli
T6 chain: T3 chain with T34A, G93P
Put plainly: SPR, antibody captured, mutant TIGIT ECD injected.

Experiment [3] concerns the target T7, human TIGIT ECD expressed on the CHO-S cell surface (human, UniProt Q495A1 22-141).
T7 construct: sections 3.13 and 4.1 say only stably expressing human TIGIT; also called CHO-S-hTIGIT; CHO-S-huTIGIT
T7 sequence: T3 chain with G93P
The experiment can be described thus: flow cytometry blocking assay on CHO-S-human TIGIT cells, competitor biotinylated human CD112-Fc 2 µg/mL.

The target in experiment [4] is T7, human TIGIT ECD expressed on the CHO-S …. The experiment can be described thus: flow cytometry blocking assay on CHO-S-human TIGIT cells, competitor biotinylated human CD155-Fc 2 µg/mL.
Experiment [5] has the same target. The experiment can be described thus: cell-based or functional assay.
The target of experiment [6] is T1, cynomolgus monkey TIGIT on primary T …. Put plainly: target occupancy on CD3+ T cells of cynomolgus monkey spleen cells, unoccupied TIGIT detected with biotinylated 3963H03-12, flow cytometry, 6 donors.
The target in experiment [7] is T2, human TIGIT on cells (primary T cells, …). Put plainly: cell-based or functional assay.
Experiment [8] has as its target T7, human TIGIT ECD expressed on the CHO-S …. Put plainly: flow cytometry blocking assay on CHO-S-hTIGIT cells, competitor muCD155-Fc; competitor muCD155-Fc; human IgG 3963H03-12.
Experiment [9] shares this target. Put plainly: flow cytometry blocking assay on CHO-S-hTIGIT cells, competitor muCD112; competitor muCD112; human IgG 3963H03-12.
Experiment [10] has as its target T2, human TIGIT on cells (primary T cells, …). The experiment can be described thus: target occupancy on CD3+ T cells in human whole blood, unoccupied TIGIT detected with biotinylated 3963H03-12, flow cytometry, 9 donors.
The target is the same in experiment [11]. The experiment can be described thus: cell-based or functional assay. The source holds these as a separate data set.
For experiment [12] the target is unchanged. The experiment can be described thus: flow cytometry, live transfected HEK293 cells.

Where a chain is given by its changes, count along the chain named. “And” between values parts separate entries of the source, which are not always exact repeats. Identical values can stand only once. A value given as a limit tells only on which side of the number the result lay.

T1 sequence (A0A7N9I9V4 entry or part of it): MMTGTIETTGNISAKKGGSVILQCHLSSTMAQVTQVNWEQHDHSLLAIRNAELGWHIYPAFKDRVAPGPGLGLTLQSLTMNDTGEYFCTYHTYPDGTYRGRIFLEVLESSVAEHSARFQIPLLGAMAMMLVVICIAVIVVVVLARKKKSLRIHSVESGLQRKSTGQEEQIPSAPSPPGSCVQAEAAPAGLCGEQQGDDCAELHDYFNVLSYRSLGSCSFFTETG

B1: 3963H03-12 (antibody, human IgG1, kappa, V domains shown)
VH: QVQLVQSGSELKKPGASVKVSCKASGYTFTSYPMNWVRQAPGQGLEWMGWINTNTGNPTYAQGFTGRFVFSLDTSVSTAYLQISSLKAEDTAVYYCARVGGYSVDEYAFDVWGQGTLVTVSS
VL: DIQLTQSPSFLSASVGDRVTITCRASQGISSYLAWYQQKPGKAPKLLIYAASTLQSGVPSRFSGSGSGTEFTLTISSLQPEDFATYYCQQLSSYPTFGGGTKVEIKR
notes: also called anti-TIGIT H03-12; 39631H03-12
As to B1, the EC50 in [1] is 0.132 µg/mL and 0.8 nM; in experiment [2], 0.0852 µg/mL and 0.6 nM; in experiment [6], 0.0927 µg/mL and 0.6 nM; in experiment [7], 12.5 µg/mL; in experiment [10], 0.24 µg/mL and 1.6 nM. In addition, the binding result with human TIGIT ECD P114G, with human TIGIT ECD Y113A, with human TIGIT ECD Q53A and with human TIGIT ECD T55A was “no binding (tested: 100 nM antigen)” in each case. The IC50 in [3] is 0.411 µg/mL and 2.8 nM; in [4] it was 0.165 µg/mL and 1.1 nM; in experiment [8], 0.499 µg/mL; in experiment [9] it was 1.68 µg/mL. For the same molecule, the “ADCC EC50, nM (Donor 1005-4464)” value in experiment [5] came out at 0.026 nM. Besides, in [5], the “ADCC EC50, nM (Donor 1102-7215)” value came to 0.1 nM. Further, in experiment [5], the “ADCC EC50, nM (Donor 1106-0557)” value was found to be 0.059 nM. Besides, in [11], the “NK-mediated killing of P815.hCD155 cells (Caspase-3/7 signal)” value was at most 2 fold. The “fold median fluorescence over vector-only transfected HEK293 cells” value in experiment [12] turned out to be 130 fold.

As usually defined, the EC50 is the midpoint of the concentration-response curve. In general, IC50 refers to the concentration needed to halve the response being measured.
